Measured values taken from US20030158102A1 (MAYO FOUNDATION FOR MEDICAL EDUCATION AND RESEARCH, published 2003).
Residue numbers refer to the chain shown, from its start.

T1: human B7-H2 expressed on transfected CHO cells (human, UniProt O75144 19-302)
T1 construct: whole, on cells; also called B7-H2+ CHO cells
T1 sequence (looked up): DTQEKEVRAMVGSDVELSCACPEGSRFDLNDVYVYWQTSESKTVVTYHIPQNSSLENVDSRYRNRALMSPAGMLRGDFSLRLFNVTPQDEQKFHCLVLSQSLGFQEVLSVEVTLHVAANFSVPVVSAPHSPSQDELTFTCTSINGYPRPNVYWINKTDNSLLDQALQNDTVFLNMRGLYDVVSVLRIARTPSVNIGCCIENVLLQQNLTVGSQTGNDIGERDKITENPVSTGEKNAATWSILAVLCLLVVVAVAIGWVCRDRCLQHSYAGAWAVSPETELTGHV

T2: B7-H2mIg (extracellular domain of human B7-H2 linked to mouse IgG2a) (human; mouse, UniProt O75144 19-256)
T2 construct: extracellular domain; also called B7-H2Ig (mouse Ig); B7-H2Ig; not shown: mouse IgG2a
T2 sequence (looked up): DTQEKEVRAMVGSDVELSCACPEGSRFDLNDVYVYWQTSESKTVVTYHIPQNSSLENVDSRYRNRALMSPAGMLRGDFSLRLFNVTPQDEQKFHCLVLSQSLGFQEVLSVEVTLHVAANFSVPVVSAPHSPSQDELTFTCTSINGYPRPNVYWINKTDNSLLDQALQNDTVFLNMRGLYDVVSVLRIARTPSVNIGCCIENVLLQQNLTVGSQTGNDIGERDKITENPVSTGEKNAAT

T3: B7-H2Ig fusion protein (extracellular domain of human B7-H2 linked to an Ig portion); which one not said for … (human, UniProt O75144 19-256)
T3 sequence (looked up): T2 sequence (looked up)

B1: ICOSIg homologue replacement mutant RP64-78 (Fc fusion)
chain: EINGSANYEMFIFHNGGVQILCKYPDIVQQFKMQLLKGGQILCVVYGNYSQQLQVYSKSLKFCHSQLSNNSVSFFLYNLDHSHANYYFCNLSIFDPPPFKVTLTGGYLHIYESQLCCQLK
notes: not shown: CH2-CH3 portion of human IgG1
B2: wild-type ICOSIg (extracellular domain of human ICOS fused to the CH2-CH3 portion of human IgG1) (Fc fusion)
chain: EINGSANYEMFIFHNGGVQILCKYPDIVQQFKMQLLKGGQILCDLTKTKGSGNTVSIKSLKFCHSQLSNNSVSFFLYNLDHSHANYYFCNLSIFDPPPFKVTLTGGYLHIYESQLCCQLK
notes: Made in COS cells; used as concentrated supernatant or purified; also called human ICOSIg; not shown: CH2-CH3 portion of human IgG1
B3: ICOSIg mutant Gln49Ser (Fc fusion)
chain: B2 chain with Q29S
notes: Built on ICOSIg cDNA; not shown: CH2-CH3 portion of human IgG1
B4: ICOSIg mutant Phe51Ser (Fc fusion)
chain: B2 chain with F31S
notes: as for B3
B5: ICOSIg mutant Pro117Ser (Fc fusion)
chain: B2 chain with P97S
notes: Built on ICOSIg cDNA; also called Pro117Ser mutant; not shown: CH2-CH3 portion of human IgG1
B6: ICOSIg mutant Asp64Ser (Fc fusion)
chain: B2 chain with D44S
notes: as for B3
B7: ICOSIg mutant Lys69Ser (Fc fusion)
chain: B2 chain with K49S
notes: as for B3
B8: ICOSIg mutant Phe119Ser (Fc fusion)
chain: B2 chain with F99S
notes: as for B3
B9: ICOSIg mutant Ser76Glu (Fc fusion)
chain: B2 chain with S56E
notes: Built on ICOSIg cDNA; also called Ser76Glu mutant; Ser76Glu protein; not shown: CH2-CH3 portion of human IgG1
B10: ICOSIg mutant Asp115Ser (Fc fusion)
chain: B2 chain with D95S
notes: as for B3
B11: ICOSIg mutant Gln50Ser (Fc fusion)
chain: B2 chain with Q30S
notes: as for B3
B12: ICOSIg mutant Lys67Ser (Fc fusion)
chain: B2 chain with K47S
notes: as for B3
B13: ICOSIg mutant Phe114Ser (Fc fusion)
chain: B2 chain with F94S
notes: as for B3
B14: ICOSIg mutant Lys52Ser (Fc fusion)
chain: B2 chain with K32S
notes: as for B3
B15: ICOSIg homologue replacement mutant RP49-52 (Fc fusion)
chain: B2 chain with Q29R, Q30E, K32R
notes: as for B1

Molecular target: T1, human B7-H2 expressed on transfected …
Test: FACS on CHO cells transfected to express B7-H2
Method: Flow cytometry: B7-H2⁺ CHO cells (1×10⁵ cells per sample) were incubated on ice for 45 minutes, in a 1:1 mixture of fluorescence activated cell sorter (FACS) buffer (3% FBS and 0.02% NaN₃ in PBS):COS cell culture media containing ICOSIg fusion proteins. The B7-H2Ig fusion protein was used as a negative control. The cells were washed and further incubated with fluorescein isothiocyanate (FITC)-conjugated goat anti-human IgG (BioSource, Camarillo, Calif.) on ice for 30 minutes. Fluorescence was analyzed on a FACScaliber flow cytometer (Becton Dickinson, Mountain View, Calif.) with Cell Quest software (Becton Dickinson).
Mutagenesis analysis of the interaction between ICOS and B7-H2: The conserved regions within ICOS were subjected to mutagenesis in order to analyze their importance for binding to B7-H2. […] These constructs were expressed as ICOSIg hybrid proteins in COS cells, and the concentrations of the mutant proteins in serum-free culture media was determined by sandwich ELISA using anti-human Ig mAbs (BD Pharmingen). […] The ability of each ICOSIg mutant to bind to B7-H2 was determined by sandwich ELISA using B7-H2Ig (mouse Ig) and anti-human Ig mAb (FIG. 3A), and also by FACS analysis of ICOSIg binding to CHO cells that were transfected to express B7-H2. […]

Binder	binding result
B1	no binding

Molecular target: T2, B7-H2mIg (extracellular domain of human …)
Test: capture ELISA, B7-H2mIg coated, anti-human IgG-HRP detection
Method: The ability of ICOSIg mutants to bind B7-H2 was measured using capture ELISA. Recombinant B7-H2mIg fusion proteins were coated on microtiter plates at 5 μg/ml and incubated overnight at 4° C. As described above, wells were blocked and then washed with PBS-Tween, and COS cell culture media was added and incubated for 2 hours at room temperature. HRP-conjugated goat anti-human IgG was added after washing, followed by TMB substrate and H₂SO₄, and absorbance was measured at 405 nm.
^a The regions, nucleotides, or amino acids in front of the slash were replaced with the corresponding regions, nucleotides, or amino acids after the slash. ^b Nucleotides are numbered from the A of the initiation codon. ^c Amino acids are numbered from the initiation methionine. ^d Specific binding activities were determined for each of the indicated fusion proteins. The concentration of a fusion protein required to give an arbitrary A405, which is the same as that of wild type ICOSIg, was determined from the linear region of binding curves and expressed as a percentage of specific binding activity of ICOSIg. Values represent the average of three determinations from each binding curve. The results are representative of three experiments.

Binder	B7-H2 Binding (specific binding activity as percentage of ICOSIg)
B1	< 0.1 % of wild type ICOSIg
B2	100 % of wild type ICOSIg
B3	33 % of wild type ICOSIg
B4	< 0.1 % of wild type ICOSIg
B5	< 0.1 % of wild type ICOSIg
B6	6 % of wild type ICOSIg
B7	3 % of wild type ICOSIg
B8	< 0.1 % of wild type ICOSIg
B9	300 % of wild type ICOSIg
B10	< 0.1 % of wild type ICOSIg
B11	6 % of wild type ICOSIg
B12	< 0.1 % of wild type ICOSIg
B13	< 0.1 % of wild type ICOSIg
B14	200 % of wild type ICOSIg
B15	9 % of wild type ICOSIg

Molecular target: T3, B7-H2Ig fusion protein (extracellular …)
Test: cell-based or functional assay

Binder	T cell proliferation ([3H]-thymidine) costimulated by immobilized B7-H2Ig with anti-CD3 mAb
B9	~10 fold (against wild-type ICOSIg)

Molecular target: T1, human B7-H2 expressed on transfected …
Test: FACS on B7-H2+ CHO cells

Binder	binding result
B4	no binding
B5	no binding
B8	no binding
B10	no binding
B12	no binding
B13	no binding
